According to paper PMC2192030:

Biological target: Xenopus Mad1 (Xenopus (endogenous in Xenopus egg extract))
Experiment: co-IP

Xenopus Mad2 (natural protein)
percent of Mad2 removed by immunodepletion of Mad1: 20 to 40%
